Tests used:
[1] = biological target: T1, hFcγRIIaH on Jurkat effector cells (human, UniProt P12318 34-317); assay: cell-based or functional assay
T1 sequence (looked up): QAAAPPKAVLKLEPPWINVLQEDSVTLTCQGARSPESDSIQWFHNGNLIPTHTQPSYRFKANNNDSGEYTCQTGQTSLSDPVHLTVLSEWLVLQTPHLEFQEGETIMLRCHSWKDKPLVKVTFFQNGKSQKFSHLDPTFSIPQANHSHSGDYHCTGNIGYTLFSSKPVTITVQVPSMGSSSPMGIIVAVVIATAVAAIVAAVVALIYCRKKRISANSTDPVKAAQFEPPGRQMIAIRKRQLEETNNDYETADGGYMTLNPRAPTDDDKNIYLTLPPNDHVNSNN

[2] = biological target: hFcγRIIIaV on Jurkat effector cells (human, UniProt P08637 17-254); assay: cell-based or functional assay
[3] = biological target: T2, human FcγRIIIa F extracellular domain (human, UniProt P08637 17-208); assay: SPR; KD for hFcγRIIb divided by KD for this FcγR
T2 construct: extracellular domain; also called hFcγR IIIa F; FcγRIIIa allotype F158
Method: (§1) The extracellular domains of FcγRs were produced by the method described in WO2014104165. The interaction between the produced antibodies and human FcγRs was analyzed using Biacore 8K+ by the method below. For the running buffer, 50 mM Na-Phosphate, 150 mM NaCl, and 0.05% Tween20 (pH 7.4) was used, and measurement was performed at 25° C. The sensor chip used was a Series S SA chip (GE Healthcare) onto which CaptureSelect Human Fab-kappa Kinetics Biotin Conjugate (Thermo Fisher Scientific) was immobilized. An antibody of interest was captured onto this chip, and each FcγR diluted with the running buffer was allowed to interact with it. The chip was regenerated using 10 mM Glycine-HCl (pH 1.5), and repeatedly used to capture antibodies and perform measurement. The dissociation constants KD (mol/L) of each antibody for FcγRs were calculated using Biacore Insight Evaluation Software, with a steady state affinity model for the dissociation constant for FcγRIIb and a 1:1 Langmuir binding model for the dissociation constants for the other FcγRs (Table 2).

[4] = biological target: T3, human FcγRIIIa V extracellular domain (human, UniProt P08637 17-208); assay: SPR; KD for hFcγRIIb divided by KD for this FcγR
T3 construct: extracellular domain; also called hFcγR IIIa V; FcγRIIIa allotype V158
Method: as §1

[5] = biological target: T4, human FcγRIIa R extracellular domain (human, UniProt P12318 34-217); assay: SPR; KD for hFcγRIIb divided by KD for this FcγR
T4 construct: extracellular domain; also called hFcγR IIa R; FcγRIIa allotype R131
T4 sequence (looked up): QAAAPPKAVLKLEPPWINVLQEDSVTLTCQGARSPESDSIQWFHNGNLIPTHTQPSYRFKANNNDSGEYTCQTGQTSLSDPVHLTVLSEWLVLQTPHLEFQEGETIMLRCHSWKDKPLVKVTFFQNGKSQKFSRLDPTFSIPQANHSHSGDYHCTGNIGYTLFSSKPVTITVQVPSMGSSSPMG
Method: as §1

[6] = biological target: T5, human FcγRIIa H extracellular domain (human, UniProt P12318 34-217); assay: SPR; KD for hFcγRIIb divided by KD for this FcγR
T5 construct: extracellular domain; also called hFcγR IIa H; FcγRIIa allotype H131
T5 sequence (looked up): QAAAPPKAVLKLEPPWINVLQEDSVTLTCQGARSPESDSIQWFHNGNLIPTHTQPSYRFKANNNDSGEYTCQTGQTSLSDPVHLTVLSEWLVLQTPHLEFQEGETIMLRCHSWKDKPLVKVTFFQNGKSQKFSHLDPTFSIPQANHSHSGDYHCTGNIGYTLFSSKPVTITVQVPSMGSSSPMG
Method: as §1

[7] = biological target: T6, human FcγRIa extracellular domain (human, UniProt P12314 16-292); assay: SPR; KD of G1d divided by KD of this antibody
T6 construct: extracellular domain; also called hFcγR Ia
Method: as §1

[8] = biological target: T7, human FcγRIIb extracellular domain (human, UniProt P31994 43-217); assay: SPR; KD of G1d divided by KD of this antibody
T7 construct: extracellular domain; also called hFcγR IIb
T7 sequence (looked up): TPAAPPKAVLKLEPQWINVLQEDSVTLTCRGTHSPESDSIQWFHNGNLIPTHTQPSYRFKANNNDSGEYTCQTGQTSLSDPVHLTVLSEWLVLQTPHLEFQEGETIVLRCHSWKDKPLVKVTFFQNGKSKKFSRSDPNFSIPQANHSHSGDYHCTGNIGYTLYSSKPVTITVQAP
Method: as §1

[9] = biological target: T2, human FcγRIIIa F extracellular domain; assay: SPR; KD of G1d divided by KD of this antibody
Method: as §1

[10] = biological target: T3, human FcγRIIIa V extracellular domain; assay: SPR; KD of G1d divided by KD of this antibody
Method: as §1

[11] = biological target: T4, human FcγRIIa R extracellular domain; assay: SPR; KD of G1d divided by KD of this antibody
Method: as §1

[12] = biological target: T5, human FcγRIIa H extracellular domain; assay: SPR; KD of G1d divided by KD of this antibody
Method: as §1

T3 sequence (P08637 17-208 F176V): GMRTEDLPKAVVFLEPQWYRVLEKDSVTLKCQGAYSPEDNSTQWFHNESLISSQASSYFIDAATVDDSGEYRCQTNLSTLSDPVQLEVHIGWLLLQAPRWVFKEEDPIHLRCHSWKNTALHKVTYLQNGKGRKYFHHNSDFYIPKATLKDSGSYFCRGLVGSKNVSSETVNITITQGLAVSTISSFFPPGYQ
T2 sequence (P08637 17-208): as the sequence (P08637 17-208 F176V) above, with V160F counted along it
T6 sequence (P12314 16-292): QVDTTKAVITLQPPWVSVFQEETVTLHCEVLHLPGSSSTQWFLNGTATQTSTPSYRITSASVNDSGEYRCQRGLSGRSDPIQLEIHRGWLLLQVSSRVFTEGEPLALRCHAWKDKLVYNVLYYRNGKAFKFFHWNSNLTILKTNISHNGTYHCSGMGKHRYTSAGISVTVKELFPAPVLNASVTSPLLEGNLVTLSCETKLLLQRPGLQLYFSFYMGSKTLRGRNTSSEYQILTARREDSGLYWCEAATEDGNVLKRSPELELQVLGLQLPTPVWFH
hFcγRIIIaV on Jurkat effector cells, sequence (P08637 17-254, form in doubt): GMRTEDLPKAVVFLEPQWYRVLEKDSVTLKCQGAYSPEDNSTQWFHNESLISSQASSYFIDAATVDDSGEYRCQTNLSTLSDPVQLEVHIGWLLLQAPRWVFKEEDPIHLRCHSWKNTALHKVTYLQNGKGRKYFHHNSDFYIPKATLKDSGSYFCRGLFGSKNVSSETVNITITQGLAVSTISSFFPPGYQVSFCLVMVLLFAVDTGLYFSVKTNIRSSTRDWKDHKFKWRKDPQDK

Binder | EC50 of reporter gene induction (ADCP Reporter Bioassay, Hepa1-6/hEREG target cells) [1] | EC50 of reporter gene induction (ADCC Reporter Bioassay, Hepa1-6/hEREG target cells) [2] | A/I ratio (KD for FcγRIIb divided by KD for each FcγR) [3] | A/I ratio (KD for FcγRIIb divided by KD for each FcγR) [4] | A/I ratio (KD for FcγRIIb divided by KD for each FcγR) [5] | A/I ratio (KD for FcγRIIb divided by KD for each FcγR) [6] | Relative value to KD between G1d and hFcgRs [7] | Relative value to KD between G1d and hFcgRs [8] | Relative value to KD between G1d and hFcgRs [9] | Relative value to KD between G1d and hFcgRs [10] | Relative value to KD between G1d and hFcgRs [11] | Relative value to KD between G1d and hFcgRs [12]
EGL-ART11 (H240-Kn496/L73-k0//H240-H1516/L73-k0) (antibody, human IgG1, kappa, Kn496: L234F/L235Q/G236W/S239M/T250V/H268D/D270E/S298A/T307P + Y349C/T366W; H1516: T250V/D270E/S298A/T307P/K326D/K334E + D356C/T366S/L368A/Y407V) heavy 1: QDQLVQSGAEVKKPGASVKVSCKASGFNIKDTYIQWVRQAPGQGLEWMGRIDPLRKQTKYREKFEGRVTITADTSTNTAYMELSSLRSEDTAVYYCVRSGREFDYWGQGTLVTVSSASTKGPSVFPLAPSSKSTSGGTAALGCLVKDYFPEPVTVSWNSGALTSGVHTFPAVLQSSGLYSLSSVVTVPSSSLGTQTYICNVNHKPSNTKVDKKVEPKSCDKTHTCPPCPAPEFQWGPMVFLFPPKPKDVLMISRTPEVTCVVVDVSDEEPEVKFNWYVDGVEVHNAKTKPREEQYNATYRVVSVLPVLHQDWLNGKEYKCKVSNKALPAPIEKTISKAKGQPREPQVCTLPPSRDELTKNQVSLWCLVKGFYPSDIAVEWESNGQPENNYKTTPPVLDSDGSFFLYSKLTVDKSRWQQGNVFSCSVMHEALHNHYTQKSLSLSP heavy 2: QDQLVQSGAEVKKPGASVKVSCKASGFNIKDTYIQWVRQAPGQGLEWMGRIDPLRKQTKYREKFEGRVTITADTSTNTAYMELSSLRSEDTAVYYCVRSGREFDYWGQGTLVTVSSASTKGPSVFPLAPSSKSTSGGTAALGCLVKDYFPEPVTVSWNSGALTSGVHTFPAVLQSSGLYSLSSVVTVPSSSLGTQTYICNVNHKPSNTKVDKKVEPKSCDKTHTCPPCPAPELLGGPSVFLFPPKPKDVLMISRTPEVTCVVVDVSHEEPEVKFNWYVDGVEVHNAKTKPREEQYNATYRVVSVLPVLHQDWLNGKEYKCKVSNDALPAPIEETISKAKGQPREPQVYTLPPSRCELTKNQVSLSCAVKGFYPSDIAVEWESNGQPENNYKTTPPVLDSDGSFFLVSKLTVDKSRWQQGNVFSCSVMHEALHNHYTQKSLSLSP light: DIQMTQSPSSLSASVGDRVTITCRASQDIHKYIAWYQQKPGQAPRLLIQYTSTLQPGVPSRFSGSGSGTDYTFTISSLQPEDIATYYCLQYEQLRTFGGGTKVEIKRTVAAPSVFIFPPSDEQLKSGTASVVCLLNNFYPREAKVQWKVDNALQSGNSQESVTEQDSKDSTYSLSSTLTLSKADYEKHKVYACEVTHQGLSSPVTKSFNRGEC | 0.0367 µg/mL | 0.000413 µg/mL | 694 ratio | 3970 ratio | 11.5 ratio | 63.3 ratio | 2.4 times | 0.7 times | 141 times | 97.5 times | 1.3 times | 4.9 times
EGL-ART1 (H240-Kn125/L73-k0//H240-H1076/L73-k0) (antibody, human IgG1, kappa, Heterodimeric Fc variant of the anti-human Epiregulin IgG1; Kn125: L234Y/L235Q/G236W/S239M/H268D/D270E/S298A + Y349C/T366W; H1076: D270E/K326D/A330M/K334E + D356C/T366S/L368A/Y407V (EU numbering); also called Kn125/H1076) heavy 1: QDQLVQSGAEVKKPGASVKVSCKASGFNIKDTYIQWVRQAPGQGLEWMGRIDPLRKQTKYREKFEGRVTITADTSTNTAYMELSSLRSEDTAVYYCVRSGREFDYWGQGTLVTVSSASTKGPSVFPLAPSSKSTSGGTAALGCLVKDYFPEPVTVSWNSGALTSGVHTFPAVLQSSGLYSLSSVVTVPSSSLGTQTYICNVNHKPSNTKVDKKVEPKSCDKTHTCPPCPAPEYQWGPMVFLFPPKPKDTLMISRTPEVTCVVVDVSDEEPEVKFNWYVDGVEVHNAKTKPREEQYNATYRVVSVLTVLHQDWLNGKEYKCKVSNKALPAPIEKTISKAKGQPREPQVCTLPPSRDELTKNQVSLWCLVKGFYPSDIAVEWESNGQPENNYKTTPPVLDSDGSFFLYSKLTVDKSRWQQGNVFSCSVMHEALHNHYTQKSLSLSP heavy 2: QDQLVQSGAEVKKPGASVKVSCKASGFNIKDTYIQWVRQAPGQGLEWMGRIDPLRKQTKYREKFEGRVTITADTSTNTAYMELSSLRSEDTAVYYCVRSGREFDYWGQGTLVTVSSASTKGPSVFPLAPSSKSTSGGTAALGCLVKDYFPEPVTVSWNSGALTSGVHTFPAVLQSSGLYSLSSVVTVPSSSLGTQTYICNVNHKPSNTKVDKKVEPKSCDKTHTCPPCPAPELLGGPSVFLFPPKPKDTLMISRTPEVTCVVVDVSHEEPEVKFNWYVDGVEVHNAKTKPREEQYNSTYRVVSVLTVLHQDWLNGKEYKCKVSNDALPMPIEETISKAKGQPREPQVYTLPPSRCELTKNQVSLSCAVKGFYPSDIAVEWESNGQPENNYKTTPPVLDSDGSFFLVSKLTVDKSRWQQGNVFSCSVMHEALHNHYTQKSLSLSP light: DIQMTQSPSSLSASVGDRVTITCRASQDIHKYIAWYQQKPGQAPRLLIQYTSTLQPGVPSRFSGSGSGTDYTFTISSLQPEDIATYYCLQYEQLRTFGGGTKVEIKRTVAAPSVFIFPPSDEQLKSGTASVVCLLNNFYPREAKVQWKVDNALQSGNSQESVTEQDSKDSTYSLSSTLTLSKADYEKHKVYACEVTHQGLSSPVTKSFNRGEC | 0.0353 µg/mL | 0.000716 µg/mL | 4950 ratio | 11300 ratio | 12.4 ratio | 47.4 ratio | 3 times | 0.8 times | 1170 times | 323 times | 1.6 times | 4.3 times
